# Reference: article PMC4030953, “Pyranose Dehydrogenase from Agaricus campestris and Agaricus xanthoderma: Characterization and Applications in Carbohydrate Conversions” (Biomolecules, 2013)
# B1: AcPDH (Agaricus campestris) (protein)
# chain: AITYQHPDDLPGDVDYDFIVAGGGTAGLVVASRLGENSKWNVLVIEAGPSNKDVFATRVPGLAETLPTSHIDWNYTTVPQQALGGRSLNYSRAMILGGCSTHNGMVYTRGSKDDWNKWADVTGNRDLSWDSILPIMKKVEKFSEDFSDQSVEGHIDPSVHGNDGKLSVVASYTNVSFNDLLLETTKELVDEFPFKLDMNDGNPVGLTWNQYTIDHNAERSSSATAYLESTGDNVHVLLNTRVTRIVPTGKTNFRTVEFAVDAGGPRKQLTAKKEVILSGGFIASPQILMNSGIGDQEALKAVGVDTLVNNPSVGKNVSDQAATLVLFDTTLPNTDFDVDAAIVEWNNSHAGPLATGAPLNHLIWVRLSDDKLSGSDPSSGKDSPHIEFQFSKISHRIPPANVPNQVALPSQDSIGVVIQFSVVNLNSISRGSVSLNDNNPFSHPLIDLNMLGEEQDIAILREGVHSARRMLSSEAFKPFVNGSVHPPANITSDEDLDAFLHTTTKSYLHGVGTLSMSPQNASWGVVDPDFRVKGTTGLRVVDASVIPSVPAGHTQTPVYAFAEYASIVIAKSYN
# B2: AxPDH (Agaricus xanthodermus) (protein)
# chain: AITYQHPDDLPSNVNYDFIVAGGGTAGLVVASRLSENSDWNILVIEAGPSNKDTPETRVPGLADSLPGSRTDWNYTTIPQDALGGRSLNYSRAKVLGGCSTHNGMVYTRGSEDDWNYWAEVTGDQALSWDSVLPIMKKAEKFSQDFSDQSVDGHIDPAVHGRDGLLSVVASYTNVSFNDLLLQTTKELSDEFPFKLDLNDGKPHELAWTQYTIDHNAERSSSATSYLETTGDNVHVLVNTHVTRIVSAGNGTNFRSVEFAVDSNSPKKVLQAKKELILSAGVIASPQVLMNSGIGGREELQAIGVDTLIDNPSVGKNLSDQAATLLMFDTTLPNTDYDVAAALTEWDKSRSGPMAHGARLNHLTWVRLPDDKLNGSDPSSGKDSPHIEFQFRQISHQLPPADVPNQVQLPDPDSIGVVLQFSVVNLYSISPGSVILNDNDPFANPMIDLNMFGDQKDIAILREGVRSARRMFSSPAFKDVINGTVYPPADVTSDEDLDAFLRTSAESYWHGVGTLSMSPQNASWGVVNPDFRVKGTSGLRVVDASVIPRAPAGHTQVPVYTFAEHASVLIAASYH
# Key:
# Test in all cases: spectrophotometric electron acceptor reduction
# Details in all cases: apparent, 25 mM D-glucose, pH 4, 30 °C
# [1] = substrate: O=C1C(Cl)=CC(=Nc2ccc(O)cc2)C=C1Cl; format: biochemical, Agaricus campestris
# Text: (§1) spectrophotometric electron acceptor reduction on AcPDH
# [2] = substrate: O=C1C=CC(=O)C=C1; format: biochemical, Agaricus campestris
# Text: as §1
# [3] = substrate: O=C1C(Cl)=CC(=Nc2ccc(O)cc2)C=C1Cl; format: biochemical, Agaricus xanthodermus
# Text: (§2) spectrophotometric electron acceptor reduction on AxPDH
# [4] = substrate: O=C1C=CC(=O)C=C1; format: biochemical, Agaricus xanthodermus
# Text: as §2
Protein,Km [1] [µM],kcat [1] [s⁻¹],kcat/Km [1] [M⁻¹ s⁻¹],Km [2] [µM],kcat [2] [s⁻¹],kcat/Km [2] [M⁻¹ s⁻¹],Km [3] [µM],kcat [3] [s⁻¹],kcat/Km [3] [M⁻¹ s⁻¹],Km [4] [µM],kcat [4] [s⁻¹],kcat/Km [4] [M⁻¹ s⁻¹]
B1,110 ± 0,10.6 ± 0.57,96000,120 ± 10,34.8 ± 1.02,303000,–,–,–,–,–,–
B2,–,–,–,–,–,–,90 ± 10,7.65 ± 0.66,85000,3250 ± 510,12.9 ± 1.56,4000
